Experimental data published in US20240261340A1, “Cutibacterium Acnes Biomimetic, Prebiotic, Probiotic and Postbiotic Compositions for Treatment of Skin Conditions” (Johnson & Johnson Consumer Inc., priority 2023, published 2024).

System: Normal Human Epidermal Keratinocytes (NHEK)
Test: Lipid accumulation fluorescence assay (AdipoRed) on NHEK total lipids
Format: cell-based
Settings: 10 μg/ml, positive control
Description: Lipid accumulation using a fluorescence assay was then assessed. In particular, following the results of the transcriptomic analysis, NHEK were treated for 6 days with conditioned media at concentrations of 0.1, 0.5, 1, and 2%. Adiponectin 10 μg/ml (Sigma, St Quentin Fallavier, France), known in the literature to induce lipid production in cell cultures, was used as positive control. To quantify and visualize total lipids after the 6 days of treatment, cells were treated with AdipoRed™ Assay Reagent (Lonza, Verviers, Belgium) a lipophilic reagent which fluoresces (excitation: 485 nm, emission: 572 nm). The intensity of the fluorescence is proportional to the lipid concentration and can be measured using a spectrophotometer (Envision, Perlin Elmer, Villebon-sur-Yvette, France). Images were acquired using a fluorescence microscope (Axio imager, ZEISS, Rueil Malmaison France) with magnification ×20.
Adiponectin induced an increase in fluorescence signal after 6 days of treatment (+25%) which validated the test. […] This experiment was repeated increasing the concentration of the conditioned media to 5% and 10% and reducing the time of treatment to 1 day. Non-conditioned media at 5% and 10% were also tested as negative controls and Adiponectin (10 μg/ml) as positive control.

B1: Adiponectin (protein, UniProt Q15848 19-244, looked up)
Adiponectin: ETTTQGPGVLLPLPKGACTGWMAGIPGHPGHNGAPGRDGRDGTPGEKGEKGDPGLIGPKGDIGETGVPGAEGPRGFPGIQGRKGEPGEGAYVYRSAFSVGLETYVTIPNMPIRFTKIFYNQQNHYDGSTGKFHCNIPGLYYFAYHITVYMKDVKVSLFKKDKAMLFTYDQYQENNVDQASGSVLLHLEVGDQVWLQVYGEGERNGLYADNDNDSTFTGFLLYHDTN
notes: known in the literature to induce lipid production in cell cultures; positive control (Sigma)
1 day of treatment
  increase in fluorescence (total lipids): 250%
6 days of treatment
  increase in fluorescence signal (total lipids): +25%
